What was measured:
Format in all cases: cell-based
[1] = target: T1, humanized FGFR3c (hR3c)-expressing BaF3 cells (Homo sapiens, UniProt P22607, A441S/A461E/A470D/A499P/A500N/A559S/A717S/A734V/A765M/C582S/D512S/D516E/D576E/D580N/D722E/D758Q/D785E/DEL405-414/E426D/E447G/E729D/E768D/F566Y/F579Y/F591S/F767L/G446S/G448T/G548D/G773S/G774F/H721N/I440P/I494L/I698V/I726M/INS417HSQMAVHKLAKSI/INS423TV/INS780T/K420R/K464R/K501R/K583H/L398M/L425A/L457Y/L554I/L645I/L752V/M488L/N428S/N434G/N453G/N644H/P401G/P402T/P436L/P502V/P584N/P778R/Q611K/Q775P/R397K/R399K/R416D/R498K/R568Q/S432N/S468P/S578C/S781C/T435V/T450M/T473V/T504K/T581P/T590S/T753A/T757N/V503T/V523I/V642I/V670I/V751I/V754L); experiment: DNA synthesis in humanized FGFR3c-expressing BaF3 cells; conditions: humanized FGFR3c only; 10 μg/ml heparin
T1 construct: expressed in transfected cells; host or cells: BaF3 (mouse pro-B) cells; pSRalpha vector
Experimental: The homology between human FGFR3 and mouse FGFR3 at the amino acid sequence level is 93%. […] The cDNA of humanized FGFR3c was prepared from a commercially available human RNA sample (Takara Bio Inc.) by PCR. The sequence of its intracellular portion was substituted with the sequence of humanized FGFR1, and it was then introduced into an expression vector having an SRalpha promoter (pSRalpha). The FGFR3c expression vector was introduced into BaF3 cells by an electroporation method, so as to obtain FGFR3c-expressing BaF3 cells as G418-resistant clones. In the case of FGFR3c/betaKlotho-co-expressing cells, a betaKlotho expression vector was introduced into the FGFR3c-expressing BaF3 cells, so as to obtain the aforementioned cells as Puromycin-resistant clones. In the presence of heparin, humanized FGF21 was added in various types of concentrations to FGFR3c-expressing cells or FGFR3c/betaKlotho-co-expressing cells, and the amount of DNA synthesized was then measured.

[2] = target: T2, humanized FGFR1c (hR1c)-expressing BaF3 cells (Homo sapiens, UniProt P11362); experiment: DNA synthesis in humanized FGFR1c-expressing BaF3 cells; conditions: humanized FGFR1c only; 10 μg/ml heparin
T2 construct: expressed in transfected cells; host or cells: BaF3 (mouse pro-B) cells; pSRalpha vector
Text: (§1) In Examples 4, 5, 6, and 7, it was shown that FGF21 reacts with FGFR1c in the presence of betaKlotho. FGFR1c, betaKlotho, FGF21, and the like, which were used in an actual experimental system, were all derived from mice used as typical mammalian models. With regard to these molecules, the homology between a human and a mouse at the amino acid sequence level is extremely high (80% in FGF21, 78% in betaKlotho, and 98% in FGFR1). As a result, naturally, there are no problems regarding the compatibility of the human with the mouse, and thus it is clear that the same results as those from a murine molecule will be obtained even using a humanized molecule. In the present example, as a precautionary measure, an experimental system using a humanized molecule was constructed to confirm such respect, and an experiment was carried out. Specifically, the humanized cDNA of FGFR1c and that of betaKlotho were prepared from a commercially available human RNA sample (Takara Bio Inc.) by PCR. FGFR1c was introduced into an expression vector having an SRalpha promoter (pSRalpha), and betaKlotho was introduced into an expression vector having a CMV promoter (pcDNA3.1; Invitrogen). […] In the presence of heparin, humanized FGF21 was added in various types of concentrations to FGFR1c-expressing cells or FGFR1c/betaKlotho-co-expressing cells, and the amount of DNA synthesized was then measured.

[3] = target: T3, humanized FGFR1c/humanized betaKlotho (hβKlotho)-expressing cells (Homo sapiens, UniProt P11362+Q86Z14); experiment: DNA synthesis in humanized FGFR1c/humanized betaKlotho-expressing BaF3 cells; conditions: humanized FGFR1c and humanized betaKlotho; 10 μg/ml heparin
T3 construct: expressed in transfected cells; host or cells: BaF3 (mouse pro-B) cells; pSRalpha (FGFR1c), pcDNA3.1 (betaKlotho)
Text: as §1

[4] = test system: undifferentiated 3T3-L1 cells that had not expressed betaKlotho; experiment: Phosphorylation of FRS2 and MAPK in undifferentiated 3T3-L1 cells not expressing betaKlotho; conditions: 10 minutes
Experimental: A betaKlotho expression vector produced by the method described in Example 4 and an empty vector used as a control, into which betaKlotho cDNA had not been inserted, were introduced into 3T3-L1 fibroblasts cultured as described in Example 1 by a lipofection method, thereby obtaining Puromycin-resistant clones. These different types of cells were stimulated with FGF21, and 10 minutes after the stimulation, a cell lysate was prepared. The activation of FRS2 and MAPK that were signaling molecules located downstream of FGFR was examined by a Western blotting method.

[5] = test system: adipocytes differentiated from 3T3-L1 cells; experiment: GLUT1 mRNA expression in 3T3-L1 cells differentiated into adipocytes; conditions: various concentrations, 6 hours
Experimental: It has been reported that FGF21 allows adipocytes to increasingly express glucose transporter 1 (GLUT1). In the present example, as cultured adipocytes, there were used 3T3-L1 cells that are fibroblasts having the ability to differentiate into adipocytes by controlling culture conditions. The cells were cultured in a culture solution of a Dulbecco's modified Eagle medium (DMEM) containing 10% fetal bovine serum (FBS), so as to prepare cells maintaining an undifferentiated property as fibroblasts. The prepared cells were cultured in a test system, and they were allowed to grow to a confluent state. The cells were then left for 2 days. Thereafter, the culture solution was exchanged with DMEM as a culture solution used for differentiation induction, which comprised 10% FBS, 0.25 μM dexamethasone, 0.5 mM methyl isobutyl xanthine, and 5 μg/ml insulin. The cells were cultured for 2 days. […] The term “cells having the properties of adipocytes” is used herein to mean cells, which conduct intracellular metabolism specific to adipocytes and have cytoplasm in which large quantities of fat droplets are accumulated.
FGF21 were added in various types of concentrations to such different types of culture solutions, and the cells were further culture for 6 hours. Thereafter, RNA was extracted, and the copy number of GLUT1 was counted.

T3 sequence (P11362 22-822): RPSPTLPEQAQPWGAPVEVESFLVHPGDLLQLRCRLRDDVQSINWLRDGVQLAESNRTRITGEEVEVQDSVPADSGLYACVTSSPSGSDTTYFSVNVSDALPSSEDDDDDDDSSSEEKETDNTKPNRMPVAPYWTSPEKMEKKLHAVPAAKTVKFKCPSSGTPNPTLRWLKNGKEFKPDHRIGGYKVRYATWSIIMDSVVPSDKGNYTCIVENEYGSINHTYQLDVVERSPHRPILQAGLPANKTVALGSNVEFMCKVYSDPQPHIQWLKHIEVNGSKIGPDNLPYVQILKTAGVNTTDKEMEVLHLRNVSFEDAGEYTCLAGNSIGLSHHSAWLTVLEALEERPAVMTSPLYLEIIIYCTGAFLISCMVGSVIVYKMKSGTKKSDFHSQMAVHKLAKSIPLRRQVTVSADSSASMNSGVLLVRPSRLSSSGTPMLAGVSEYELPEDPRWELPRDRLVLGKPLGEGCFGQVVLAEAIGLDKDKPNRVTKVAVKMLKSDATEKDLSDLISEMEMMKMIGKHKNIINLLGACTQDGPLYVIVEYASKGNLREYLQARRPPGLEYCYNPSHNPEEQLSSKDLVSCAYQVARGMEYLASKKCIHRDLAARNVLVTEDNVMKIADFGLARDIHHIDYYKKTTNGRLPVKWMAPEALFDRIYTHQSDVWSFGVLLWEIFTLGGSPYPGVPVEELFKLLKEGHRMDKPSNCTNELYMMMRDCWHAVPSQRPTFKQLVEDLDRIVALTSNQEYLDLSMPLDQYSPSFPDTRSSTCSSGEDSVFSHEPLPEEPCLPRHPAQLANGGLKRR
T3 sequence (Q86Z14 whole entry): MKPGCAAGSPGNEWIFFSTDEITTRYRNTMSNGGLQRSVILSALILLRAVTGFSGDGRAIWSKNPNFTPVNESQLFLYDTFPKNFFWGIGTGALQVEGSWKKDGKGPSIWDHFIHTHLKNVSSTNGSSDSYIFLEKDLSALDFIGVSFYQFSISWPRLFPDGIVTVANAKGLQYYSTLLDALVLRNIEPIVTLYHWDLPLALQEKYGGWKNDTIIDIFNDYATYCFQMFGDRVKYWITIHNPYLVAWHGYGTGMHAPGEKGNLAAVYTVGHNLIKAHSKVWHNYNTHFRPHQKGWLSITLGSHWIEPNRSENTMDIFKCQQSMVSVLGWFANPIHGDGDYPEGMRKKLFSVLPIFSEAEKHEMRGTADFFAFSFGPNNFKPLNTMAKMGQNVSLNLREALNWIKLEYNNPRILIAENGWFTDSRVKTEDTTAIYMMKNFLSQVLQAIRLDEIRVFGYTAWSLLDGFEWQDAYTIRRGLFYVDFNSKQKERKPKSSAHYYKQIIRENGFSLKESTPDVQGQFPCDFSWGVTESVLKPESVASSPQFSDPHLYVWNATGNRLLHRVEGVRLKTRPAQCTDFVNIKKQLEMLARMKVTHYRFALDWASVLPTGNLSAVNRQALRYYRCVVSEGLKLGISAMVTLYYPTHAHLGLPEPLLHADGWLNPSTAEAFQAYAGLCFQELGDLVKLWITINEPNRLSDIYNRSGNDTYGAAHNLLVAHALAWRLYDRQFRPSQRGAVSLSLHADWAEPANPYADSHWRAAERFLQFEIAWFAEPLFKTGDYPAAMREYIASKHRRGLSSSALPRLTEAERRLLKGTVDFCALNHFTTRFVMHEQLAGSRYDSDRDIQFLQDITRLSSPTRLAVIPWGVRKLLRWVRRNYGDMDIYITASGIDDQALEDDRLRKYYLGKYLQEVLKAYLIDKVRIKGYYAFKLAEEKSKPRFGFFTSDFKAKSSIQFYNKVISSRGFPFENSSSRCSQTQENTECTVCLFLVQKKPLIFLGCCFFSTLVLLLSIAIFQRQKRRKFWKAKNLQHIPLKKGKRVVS
T2 sequence (P11362 22-822): as the sequence (P11362 22-822) above
T1 sequence (P22607 other isoform, or with tags, fused parts or gaps with the stated changes): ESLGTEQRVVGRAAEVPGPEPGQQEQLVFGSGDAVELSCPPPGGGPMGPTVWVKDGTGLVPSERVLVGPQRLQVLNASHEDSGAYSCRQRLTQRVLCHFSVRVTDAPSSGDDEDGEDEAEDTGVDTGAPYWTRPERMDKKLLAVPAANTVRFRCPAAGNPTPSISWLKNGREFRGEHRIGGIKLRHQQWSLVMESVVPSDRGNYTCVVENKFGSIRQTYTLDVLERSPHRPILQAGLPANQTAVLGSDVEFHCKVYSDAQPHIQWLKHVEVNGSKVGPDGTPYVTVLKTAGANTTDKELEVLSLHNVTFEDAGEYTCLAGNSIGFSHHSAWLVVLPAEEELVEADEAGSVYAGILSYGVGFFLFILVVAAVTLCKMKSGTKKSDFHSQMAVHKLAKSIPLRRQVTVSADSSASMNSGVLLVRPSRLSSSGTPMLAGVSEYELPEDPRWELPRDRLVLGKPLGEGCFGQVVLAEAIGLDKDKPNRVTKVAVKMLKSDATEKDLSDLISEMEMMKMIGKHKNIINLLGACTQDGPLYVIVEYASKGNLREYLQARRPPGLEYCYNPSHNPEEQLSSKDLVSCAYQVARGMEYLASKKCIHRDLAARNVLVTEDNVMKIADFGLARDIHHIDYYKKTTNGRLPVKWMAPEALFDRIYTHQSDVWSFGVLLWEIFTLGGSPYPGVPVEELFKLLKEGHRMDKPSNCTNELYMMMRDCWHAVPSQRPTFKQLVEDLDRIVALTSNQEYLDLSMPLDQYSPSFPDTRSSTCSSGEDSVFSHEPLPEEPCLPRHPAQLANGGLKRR

| Molecule | amount of DNA synthesized (thymidine incorporation) [1] | amount of DNA synthesized (thymidine incorporation) [2] | amount of DNA synthesized (thymidine incorporation) [3] | phosphorylated state of FRS2 and MAPK [4] | expression level of GLUT1 mRNA [5] |
| --- | --- | --- | --- | --- | --- |
| FGF1: conventional FGF used as a control | promoted the DNA synthesis | promoted the DNA synthesis | promoted the DNA synthesis | – | – |
| FGF21: fibroblast growth factor 21; mouse-derived protein used in Examples 1-7 and 10-13 (protein) AYPIPDSSPLLQFGGQVRQRYLYTDDDQDTEAHLEIREDGTVVGAAHRSPESLLELKALKPGVIQILGVKASRFLCQQPDGALYGSPHFDPEACSFRELLLEDGYNVYQSEAHGLPLRLPQKDSPNQDATSWGPVRFLPMPGLLHEPQDQAGFLPPEPPDVGSSDPLSMVEPLQGRSPSYAS | – | – | – | do not change | increased |

From patent publication US8697369B2, “Method for screening a test substance for activating a receptor associated with FGF 21 activity” (National Institute of Advanced Industrial Science and …, priority 2007, dated 2014)
